Measurements reported in FireProtDB (doi:10.1038/nsb0196-54).

Conditions: Escherichia coli; pH 7; Thermal; CD; Sodium phosphate 10 mM; NaCl 350 mM; whole UniProt chain shown

B1: Regulatory protein rop wild type, P03051 (protein)
chain: MTKQEKTALNMARFIRSQTLTLLEKLNELDADEQADICESLHDHADELYRSCLARFGDDGENL
Tm: 68.7 °C
